# The supplement of paper PMC7125110
# ± gives the standard error. For part of these data: Fewer inactive variants are shown than the library holds.
# B1: glmS ribozyme (parent)
# chain: AUAAAAGCGCCAGAACUACAGAAAUGUAGUUGACGAGGAGGAGGUUUAUCGAAUUUUCGGCGGAUGCCUCCAAA
# Key:
# Details in all cases: with glucosamine-6-phosphate
# glucosamine-6-phosphate [1] = variants of: B1; assay: kcat; higher = faster cleavage; RNA array
# Method in brief: (§1)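 Barcoded ribozyme variants were transcribed in situ on sequenced MiSeq chips by E. coli RNA polymerase. At 37 °C, a hybridised Cy3 probe tracked them while glucosamine-6-phosphate (40 μM to 10 mM) in HEPES/KCl/Mg(OAc)2 buffer flowed in and tiles were imaged over ~14 h. Per-tile medians of signals normalised to baseline and to non-cleaving reference variants were fit to one- or two-exponential decays, giving kobs. kcat and KM came from weighted Michaelis–Menten fits across concentrations.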
# glucosamine-6-phosphate [2] = variants of: B1; assay: self-cleavage kobs at 640 uM GlcN6P; higher = faster cleavage; RNA array
# Method in brief: as §1
# glucosamine-6-phosphate [3] = variants of: B1; assay: self-cleavage kobs at 2500 uM GlcN6P; higher = faster cleavage; RNA array
# Method in brief: as §1
# glucosamine-6-phosphate [4] = variants of: B1; assay: self-cleavage kobs at 10000 uM GlcN6P; higher = faster cleavage; RNA array
# Method in brief: as §1
# glucosamine-6-phosphate [5] = variants of: B1; assay: self-cleavage kobs at 40 uM GlcN6P; higher = faster cleavage; RNA array
# Method in brief: as §1
# glucosamine-6-phosphate [6] = variants of: B1; assay: KM; higher = weaker cofactor use; RNA array
# Method in brief: as §1
# glucosamine-6-phosphate [7] = variants of: B1; assay: self-cleavage kobs at 160 uM GlcN6P; higher = faster cleavage; RNA array
# Method in brief: as §1
Variant,kcat (glucosamine-6-phosphate [1]) [s⁻¹],self-cleavage kobs at 640 uM GlcN6P (glucosamine-6-phosphate [2]) [s⁻¹],self-cleavage kobs at 2500 uM GlcN6P (glucosamine-6-phosphate [3]) [s⁻¹],self-cleavage kobs at 10000 uM GlcN6P (glucosamine-6-phosphate [4]) [s⁻¹],self-cleavage kobs at 40 uM GlcN6P (glucosamine-6-phosphate [5]) [s⁻¹],KM (glucosamine-6-phosphate [6]) [µM],self-cleavage kobs at 160 uM GlcN6P (glucosamine-6-phosphate [7]) [s⁻¹]
A15U C70A,6.56e-05 ± 1e-05,3.49e-05 ± 1.2e-05,6.73e-05 ± 7e-06,4.87e-05 ± 1.1e-05,–,–,–
A6G A64G,1.81e-05 ± 5.8e-06,–,–,–,< 1e-05,–,–
A53C U55A,0.00829 ± 0.0024,0.00172 ± 0.00021,0.00411 ± 0.00049,0.00772 ± 0.00094,0.000204 ± 1.9e-05,2150 ± 840,0.000453 ± 6.9e-05
G13A U57A,5.51e-05 ± 4.2e-06,–,4.76e-05 ± 1.5e-05,–,–,370 ± 130,–
U45G A53C,0.00249 ± 0.00031,0.000627 ± 0.00012,0.00179 ± 0.00022,0.00197 ± 0.00021,5.63e-05 ± 8.5e-06,1820 ± 370,0.000176 ± 3.1e-05
A12U U69G C70G,2.63e-05 ± 1.3e-05,–,–,–,–,–,< 1e-05
U54G U65A,0.00375 ± 0.00091,0.0008 ± 0.00014,0.00199 ± 0.00034,0.00315 ± 0.00065,9.07e-05 ± 1.5e-05,2250 ± 730,0.000213 ± 3.8e-05
G26U,0.0318 ± 0.01,0.00931 ± 0.0012,0.0179 ± 0.0032,0.0456 ± 0.0065,0.00112 ± 7.2e-05,1200 ± 480,0.00324 ± 0.00048
A42C U56C,< 1e-05,–,–,–,< 1e-05,–,–
A33G U49C U57A,2.2e-05 ± 2.7e-06,–,–,–,–,–,–
A33C U57A,2.16e-05 ± 4.2e-06,–,–,–,–,–,–
G32A C68U,0.0003 ± 1.7e-05,7.37e-05 ± 1.1e-05,0.000149 ± 1.9e-05,0.000251 ± 2e-05,–,2170 ± 300,–
G59U C71U,5.45e-05 ± 7.2e-06,–,2.79e-05 ± 1.3e-05,4.88e-05 ± 8.4e-06,–,–,–
G32A G41A,0.00039 ± 9.1e-05,6.12e-05 ± 1.1e-05,0.000116 ± 1.6e-05,0.000279 ± 3e-05,–,4740 ± 2000,–
U30G G38U,< 1e-05,–,–,–,–,87.6 ± 41,–
G63C C70U,< 1e-05,–,< 1e-05,–,< 1e-05,–,–
G29A G59C C70G,< 1e-05,–,–,–,–,–,–
A39G U65A,0.0108 ± 0.0047,0.00201 ± 0.00056,0.00741 ± 0.0031,0.00966 ± 0.0034,0.000266 ± 6.6e-05,–,–
A15C G29C,0.00165 ± 0.00021,0.000333 ± 4.2e-05,0.000772 ± 9.9e-05,0.00135 ± 0.00018,3.67e-05 ± 1e-05,2620 ± 510,8.7e-05 ± 1.5e-05

Variant,kcat (glucosamine-6-phosphate [1]) [s⁻¹],self-cleavage kobs at 640 uM GlcN6P (glucosamine-6-phosphate [2]) [s⁻¹],self-cleavage kobs at 2500 uM GlcN6P (glucosamine-6-phosphate [3]) [s⁻¹],self-cleavage kobs at 10000 uM GlcN6P (glucosamine-6-phosphate [4]) [s⁻¹],self-cleavage kobs at 40 uM GlcN6P (glucosamine-6-phosphate [5]) [s⁻¹],KM (glucosamine-6-phosphate [6]) [µM],self-cleavage kobs at 160 uM GlcN6P (glucosamine-6-phosphate [7]) [s⁻¹]
C16A A39C,0.000305 ± 1.9e-05,3.69e-05 ± 1.3e-05,0.000114 ± 1.5e-05,0.00021 ± 2.9e-05,–,4340 ± 490,–
U56A C68G C71U,4.87e-05 ± 2e-05,7.83e-05 ± 1.6e-05,4e-05 ± 1.6e-05,–,–,–,–
G38U G63A,< 1e-05,–,–,–,< 1e-05,–,< 1e-05
C16U U57G,7.51e-05 ± 1.3e-05,3.61e-05 ± 1.3e-05,4.22e-05 ± 8.4e-06,7.03e-05 ± 1.1e-05,–,–,–
U30C C71G,4.29e-05 ± 9.8e-06,4.3e-05 ± 1.8e-05,7.05e-05 ± 1.2e-05,3.35e-05 ± 7.1e-06,–,–,–
U57G C70U,7.01e-05 ± 1.4e-05,5.96e-05 ± 1.8e-05,4.91e-05 ± 8.8e-06,8.12e-05 ± 1.3e-05,–,–,–
G26U C70G,0.000115 ± 1e-05,9.17e-05 ± 1.7e-05,0.000117 ± 1.6e-05,9.26e-05 ± 2.8e-05,–,142 ± 48,6.66e-05 ± 1.3e-05
C16A G37A,7.68e-05 ± 2.6e-06,–,5.79e-05 ± 1.2e-05,6.89e-05 ± 9.4e-06,–,999 ± 160,–
G13A A14C,0.000465 ± 2.9e-05,9.47e-05 ± 1.2e-05,0.000245 ± 3.2e-05,0.000353 ± 8.7e-05,–,2440 ± 230,2.93e-05 ± 1e-05
A52U U65A U69C,1.13e-05 ± 8.7e-07,–,–,–,–,1400 ± 420,–
G59C U69A,2.45e-05 ± 5.3e-06,–,–,–,–,–,–
G59U C68A,2.28e-05 ± 4.9e-06,–,–,–,–,–,–
G37U C67U,1.39e-05 ± 4.5e-06,–,–,–,< 1e-05,–,–
G29C U30A,0.000322 ± 1.4e-05,5.97e-05 ± 1.4e-05,0.000141 ± 3.8e-05,0.000253 ± 4.6e-05,–,2880 ± 230,–
U30G U45A,0.0197 ± 0.0054,0.00474 ± 0.0013,0.0101 ± 0.0026,0.0239 ± 0.0066,0.000528 ± 9.3e-05,1680 ± 600,0.00157 ± 0.00042
C16A C58G,3.2e-05 ± 7.1e-06,–,4.47e-05 ± 1.2e-05,2.59e-05 ± 8.5e-06,–,–,–
C50U C70A,2.87e-05 ± 6.9e-06,3.61e-05 ± 1.4e-05,3.43e-05 ± 1.5e-05,–,–,–,–
C61G U69A,2.83e-05 ± 3.9e-06,–,–,–,–,–,–
A48U G51A,1.23e-05 ± 5.9e-06,–,–,< 1e-05,< 1e-05,–,–
